Test results published in paper PMC8421374.

Legend:
[1] = single-channel recordings at five voltages; settings: glycan lost; control: WT Piezo1
[2] = cell-attached patch clamp, peak stretch-activated current, Piezo1-/- HEK293T; settings: glycan lost; control: WT Piezo1-GFP
[3] = inactivation time constants, cell-attached patches; settings: glycan lost; control: WT Piezo1-GFP
[4] = cell-attached patch clamp, split construct, Piezo1-/- HEK293T; settings: glycan lost; control: WT split Piezo1
[5] = Fura-2 ratiometric Ca2+ imaging, 2 µM Yoda-1; settings: glycan lost; control: WT Piezo1
[6] = live cell anti-HA surface labelling, confocal; settings: glycan lost; control: WT Piezo1 with extracellular HA tag
[7] = immunogold TEM, membrane/cytoplasm labelling ratio; settings: glycan lost; control: WT Piezo1

Substance: human Piezo1: N295Q
- other: unitary conductance, other: unitary conductance [1]: no change

Substance: human Piezo1: N295Q and N885Q
- other: channel current [2]: decreases

Substance: human Piezo1: N658Q
- other: unitary conductance, other: unitary conductance [1]: no change
- other: channel current [2]: decreases

Substance: human Piezo1: N658Q and N885Q
- other: channel current [2]: decreases

Substance: human Piezo1: N885Q
- other: unitary conductance, other: unitary conductance [1]: no change
- other: channel current [2]: decreases

Substance: human Piezo1: N892Q
- other: unitary conductance, other: unitary conductance [1]: no change

Substance: human Piezo1: N1095Q
- other: unitary conductance, other: unitary conductance [1]: no change

Substance: human Piezo1: N2294Q
- other: channel inactivation kinetics [3]: no change
- other: channel current [2]: no change

Substance: human Piezo1: N2294Q and N2331Q
- other: channel current [4]: abolishes

Substance: human Piezo1: N2294Q/N2331Q
- other: Yoda-1-evoked Ca2+ influx [5]: abolishes
- localisation_or_trafficking [6]: abolishes

Substance: human Piezo1: N2294Q/N2331Q (CapQQ)
- localisation_or_trafficking [7]: decreases
- other: channel current [2]: decreases

Substance: human Piezo1: N2331Q
- other: channel inactivation kinetics [3]: no change
- other: channel current [2]: no change
